The values that follow come from US20260139065A1 (Novartis, published 2026).

In the assay the target is T1, BAFF-R (B-cell activating factor receptor) (human, UniProt Q96RJ3 1-78, limits assumed).
T1 construct: also called BAFF receptor; BR3
T1 sequence (looked up): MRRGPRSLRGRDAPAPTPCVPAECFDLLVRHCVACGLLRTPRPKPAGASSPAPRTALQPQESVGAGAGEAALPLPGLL
The experiment in a line: in vitro experiments (method not given); used as a parameter of the tissue receptor occupancy model.

B1: ianalumab (antibody, human IgG1, kappa, V domains shown)
VH: QVQLQQSGPGLVKPSQTLSLTCAISGDSVSSNSAAWGWIRQSPGRGLEWLGRIYYRSKWYNSYAVSVKSRITINPDTSKNQFSLQLNSVTPEDTAVYYCARYDWVPKIGVFDSWGQGTLVTVSS
VL: DIVLTQSPATLSLSPGERATLSCRASQFISSSYLSWYQQKPGQAPRLLIYGSSSRATGVPARFSGSGSGTDFTLTISSLEPEDFAVYYCQQLYSSPMTFGQGTKVEIKR
notes: also called VAY736; anti-BAFF-R antibody
For B1, the dissociation constant Kd (as a rule, the equilibrium constant for the complex coming apart) turned out to be 0.046 nM.
